Results taken from doi:10.1101/2023.07.20.548338.

Molecular target: GLS1 (endogenous; both KGA and GAC, not told apart) (UniProt D3Z7P3)
Assay: IP of endogenous GLS1, PDZD8 blot
Details: reference: wild-type PDZD8, glucose-starved cells; sites T527

## PDZD8 (from UniProt Q8NEN9) PDZD8-T527A, glucose-starved cells
  binding against the reference: weaker
